The values below come from article PMC3288515.

Holding throughout (assay): EMSA
Series [1] concerns the target T1, PU.1 (UniProt P17433 1-272).
In series [2] the target is T2, STAT5 (STAT5a cDNA used for the retroviral construct) (UniProt P42230 1-793).
Series [3] deals with T1, PU.1. This is another data set of the same source.
Series [4] concerns the target T2, STAT5 (STAT5a cDNA used for the …). The source holds these as a separate data set.

Where two headings read alike, the source gives them in different places.

T2 sequence (P42230 whole entry): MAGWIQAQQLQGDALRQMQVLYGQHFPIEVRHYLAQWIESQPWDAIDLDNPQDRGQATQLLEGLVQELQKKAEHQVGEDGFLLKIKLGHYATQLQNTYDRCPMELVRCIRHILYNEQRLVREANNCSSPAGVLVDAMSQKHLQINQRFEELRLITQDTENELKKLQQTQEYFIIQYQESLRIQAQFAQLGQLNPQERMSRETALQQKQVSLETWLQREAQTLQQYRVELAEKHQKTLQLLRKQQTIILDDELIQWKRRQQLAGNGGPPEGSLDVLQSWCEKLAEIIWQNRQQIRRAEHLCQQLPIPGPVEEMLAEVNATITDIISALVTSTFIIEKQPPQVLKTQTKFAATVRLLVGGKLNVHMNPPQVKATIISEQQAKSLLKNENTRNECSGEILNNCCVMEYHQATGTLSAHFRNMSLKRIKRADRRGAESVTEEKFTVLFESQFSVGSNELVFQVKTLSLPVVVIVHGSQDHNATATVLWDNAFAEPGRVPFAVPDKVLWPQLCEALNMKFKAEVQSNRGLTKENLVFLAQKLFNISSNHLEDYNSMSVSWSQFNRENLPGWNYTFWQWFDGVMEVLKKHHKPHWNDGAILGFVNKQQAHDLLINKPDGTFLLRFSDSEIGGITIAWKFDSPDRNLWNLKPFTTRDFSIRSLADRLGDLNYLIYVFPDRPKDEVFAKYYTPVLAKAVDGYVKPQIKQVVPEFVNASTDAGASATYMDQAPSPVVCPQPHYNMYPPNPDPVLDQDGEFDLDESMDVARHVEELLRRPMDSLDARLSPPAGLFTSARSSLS

B1: κE3' PU.1-STAT5 probe (dsDNA)
DNA 1: CTTTGAGGAACTGAAAACAGAACCT
DNA 2: AGGTTCTGTTTTCAGTTCCTCAAAG
Consider B1, for which the binding result (with PU.1 [1]; in series [2]) was “binds” each time.

B2: SV40 PU.1 probe (dsDNA)
DNA 1: TGAAATAACCTCTGAAAGAGGAACTTGGTTAGGTA
DNA 2: TACCTAACCAAGTTCCTCTTTCAGAGGTTATTTCA
For the molecule B2, the binding result was “binds” in the series with PU.1 [3] and “no binding” in series [4].
